The supplement of paper PMC12636428

System: Saccharomyces cerevisiae
Assay: transcriptional activation domain activity (GFP:mCherry ratio, weighted mean of sorted bins, harmonized to initial dataset scale) (arbitrary fluorescence ratio units); higher = stronger transcriptional activation
Details: beta-estradiol 1 µM; induction time 4 h
Procedure, shortened: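 Values are activation activity, found as the read-weighted mean of bin median fluorescence, averaged across barcodes and then mapped linearly onto the initial dataset scale. Barcoded protein tiles fused to an estradiol-inducible synthetic transcription factor were integrated at the URA3 locus of GFP-reporter yeast diploids. Cells were induced for 4 hours at 30 °C with 1 uM beta-estradiol in SC, sorted into 8 bins by GFP:mCherry ratio, and barcode-sequenced, with tiles under 50 reads discarded.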

Sequence	transcriptional activation domain activity
MLYVRCVISYIHIYNIFIHVTVSVHPEWWAFVSLTCFTLHVYLLHFLSAVARC	67000
MLYYYHYLAVQSGLKRKYAFKNMYLCLLLYSLFFVFASINIVHLIKWQCYFFV	45800
MMACLVSGIGWCLLYFTCMYLLLIYYILSLFYPPLASCNSFSFFFLSFFFFAG	67200
MMAEGERPLATMCSVLSVCYVCVRLVLSNLIWIVLCSSPRPLPMALLSLLAHR	32900
MMAMAFDPGFRDDEVVQFLLYELGVSSLLFCFVCFGDFVDFLDPFAFWVDLLF	48600
MMAPSCSICLPLVLPPLLCQIFSPLILSLFPYPLHCLCMLFFQLIYMPLFFFF	68200
MMDCGRRTSFQAFIFLSLFLVHQVSFCCVYLICFFFFLFFLSFLYSFPFPFFF	26400
MMDCRRRTGFQAFFLSFLSLVLSSFFLLCLFNPYVCVFFLIFHYRLTFSVIWS	49100
MMELEGWDGGPYIWVDLVILFWLFVILLDWFFLLAIFSTVRGSPGLVGVFFFF	52100
MMFCLRSFIPLLLLPLPPSLSPLHLVLLLFLTYILNRPCIYCSFLLLILFVSS	60600
MMFETHFWSLSSLLLFFFSFFLFLSLYLGVSILFFQFPFPFPFPFPFFFYLFL	39500
MMFETHFWSLSSLLLLFFLSFFFFLYIWGSRFFFFQFPFPFPFPFPFFFSIFF	53800
MMFFFFFLVSFIYFWIGAPVGFFILKIKFVMLDVQSLHLAIFLICPHLCFYVM	54400
MMGLRELHAASREFAMLFWREPRLDLALFLLLFLFFFVLFLFFCLFFFFCLVF	15100
MMGLSLGFKCCFQMLSLFSILFSFHLVLRLLSFPFFSCSYCILYRFLFFCWGW	24500
MMHCLRYFLLLLFLPFPSAPPYLLLLFIVSMFLYHRPCAYCTFLIMSIFSATC	76700
MMHLSIRDEQKVSLCLTIYLFIFFFFFLILFLWLEGVYLFFLLMTFFLRPYSS	43800
MMHSLHPLSISILSLDFNLSYLLFVLPCHRIICSFFRLLAVLFHFFLFIGFYL	60300
MMKKKNWSYVVFWRGLPFFFFFFFFFFGEHFVLIFTSFVLFLLSLLCAGCVWV	25000
MMKTLAQMYPLASFSLFQGLKFFILLALMNECLLLCTALRRWLICTQLPGIYF	49200
MMKVVGFLYQIYLIIYCVGWWFLLLVLFVFSFSFFFFLFFFFLFFSSTFYSLS	43100

Sequence	transcriptional activation domain activity
MMLLLMLMILMMILTMMMLLLLHKQENEGCVLFLFLLWWLWLWFWLWCCWKSS	35300
MMLLSVRLCIVFFSFMAACFGIPYTPSILFASLFASALGLHILRIFFLVIVHF	51300
MMLPLVQGWGSTDGFFIFIFIFFIFAFLFNLSIYRSFFFLPFLFFYMEVLLRL	73300
MMLVGVVAFNVLKVIPVSDPRCIGVLLVGYVFQGLGFFMTFFYLAIYILRIMT	43600
MMLVQSIPVSRDVILGVLLRLLAPTVFLSSVVLALLLVSTLCKIPKQGRLRAW	64600
MMLVSSRSFLYWYGVSLTLLLLSLEFVWSFLLFFTWLVTLSLFPFLSSVSHCH	60200
MMLWWRWRWILLLMLMLMLRWRWWWHTSLWWRWSKCLLTRLLLLLLLWWWDSF	55000
MMMGTIVKSFFLFTFTFSIFFFYFFPRVLFTPFFFTYWTSAFFLLLFLFFFLF	64900
MMMGTIVKSFFLFTFTFSIFFFYFFPRVLFTPFFFYILDLSLFFIVVLIFFSF	54300
MMNKTPGFLSLIPPFVIDLILLRCCLDPNISLNVTYRTLYFLMWFFQSVYLAV	53200
MMNNNESEAENQRLLDELMNQTKVLQETLDFSLVTPTPHHNDDYKIHGSAYPG	47300
MMPRGSYLAFFLLLLFYSFLSLFTPLNFVFLFFLSPLLRLHTLFYLLYFFGLA	42100
MMRCRFGVVFRILPYYLFVFPQIFIYLLLDSFDVQSSLPLLLLYTSLIILVTW	56900
MMRKLAYFYALPEVQNSKVLQTIVKKGFVPLLIALIFPRVTEDQLRVVIRFCQ	50000
MMRRWNELGLDGWVQNQHGLDSFAFLQLAFRLPICCIFPSKILVVFPLLLLSA	52900
MMRSAANMGLISQPSNLLLVVQPCPPLLLCVLFPPPLSSYCLLLSLSLLLFFF	38500
MMSDSGQDEKTLPQADKNGTSQVAVPLEATEASEQALLRRLLRKTDLLVMPGL	24200
MMSGGMAYQVLFLYLLGYRLFYPRYFLFHSMFLFFIYCYMRCCPFRFTTILID	58000
MMSMFWGWHGQRNGVFSGVLGFGILLVTWFFFFFKFSPHILLIISVYGHFGFF	81500
MMYDSLSSLFVSTLFFSLYEFLCLSCPLCFNYPFQVGFCTLFLFFHPLFAFMQ	34500
MNAFRPLHFLFYFIFLLLSMKALRFFIFSIFFFIFLHLHLCIHIYIALLFSYP	30600

Sequence	transcriptional activation domain activity
MNAQQLSGTRHKKEIKRRTKTGCLTCRKRRIKCDEGHPTCRNCQKSKRECLGY	38600
MNAVQASGLVISLVLYVAVVFILLAGPLLFFLCYFFFLISITFPVHLPPMRVS	63800
MNCGIGFLNFHSQTSFKFLLFILFHFNFFAYLPLLTSCYSRLFSFSFSTIYFI	61200
MNCRIVWNRCCGGLVPRFLLFLWCFGTVGYYRYFFSMGLGILLLWYILVLTTV	50600
MNDCSAGCAGGQFPVGQDGLICIVEFNTITCVSTGSIVFLMLHSWLYFVLLIF	71600
MNDKVVSCETRRRRKAREGREKRGKGEERGEKREGRRERGEREREKRKERGRE	25300
MNFFFCMRSWTLLCYPKTGLLFFILCFFSSALSILSPPPCIFFFFFFLSRVCC	45100
MNFTDIYFSDIIYVLLLYLLILFTFFLDLLISFTFVTLYSILFLFVLYSFILN	70500
MNFWAWFFFFFYSLLILITSFLSFVFFFSLFLFWFLFLFLFPFLSLLIFPLPS	41100
MNGDRDSGRSRDHYSSRGDRDDRRDRDRDRRRRSRSPGHRSSRRDYEVDTYSS	45700
MNGGNGFGFWFGVWFWLGIYILSLFFFFFSFSFLLLCVFVSFHSLVFFFFFFS	53300
MNGLWCRDDILFYISFVLILFSSFSIFLLLLDRLRFLFSFLFFFFFWCFVFIV	45800
MNHTSRFFSPFFLFSLFLSFPSFLLPCFLLLFLFLPFLPPSLSLLSLILYKFW	31900
MNIDAPRPRPGGDRPIRRRRRPVVACNECRRRKIACDRKSPCCQCTLHRVNCV	44600
MNILNLEMWYYLLECLNLRFVLVFFLLSLFFSSRFTGGLVGVECFSFFVWITM	86000
MNITTVRALGLYILFHQYLIMIEDFICGFLIWYLRYFFYFTYLLCTVISYLSC	78500
MNKLFFKLRICVLIKIMLLQFVIIATIYNCNYFIIIVMYICLLLLLPFKLVYD	52100
MNLDTSPDFVHFFLGFTGGVSILDLYCLFMYTFFDMIQLQLNPFSDFFFPFSL	62100
MNLILRCIWRVTKTIPRLIQTKSIKPDILLYDIHKFFVTVPPREWKRRATEFP	55900
MNLLFITFFLLVMWVVWFICVVVPFFLLLLLCFFSFLFFRLFGAGWLGWVGNF	42500
MNLSRVFLKVRAIAFSCISLLSFLWIILLCLMLYYRWDESDHSEHSLLIILLL	45100

Sequence	transcriptional activation domain activity
MNLSRYAVVLATQWGILIMLAMNQLCIPSFLTMFAYIPTKVLQFFHYFIVSLF	47700
MNLTLFYYTFLLSFFLIYCVVLNLYLRFFPANFVNMPLFISLTFLKCAWIPLL	56200
MNLVSLAAVCLFYFFSPTLFFVPSLCSHGHLFTYGHFLLLLCSLILPWTCFRL	72000
MNLYLLCRYMTLVYCFVYMLGNNITKFDCEVWVKALLSFGYIASILSSSLIVL	61200
MNPHFLLPSIVSFQFSCFFGCLVVYLSVFFSRFIFILTFPSIYFSSTVFFFVS	37100
MNPPDNIIILPFHPLPFFWLLIFIPFSLSLPSSFFFNSNLSFLFFFFVFCFMI	68600
MNPPIHSLSFLQSYICFMLIPPLPLMFIIVFHPLYFFWLFLSFLLLDYYLSLL	37800
MNPTPAVFALFFPVIFCVYICYAWFLLFFVFWEPFFFLHIFLYRIILLSIWNL	29900
MNQHYGFLNCDLFFYFFFSSLFLIWPFLLFSFSFTVFPYLFTIMETYFGHIKT	28700
MNQSPDDTGGEDQTTAPSWRACDNCRARKIKCDKRSPCSNCRVSNAICRTAKK	30600
MNQTRHFFSPFFLFSLFLSFPSFLLSSFLLLFLPFYFSPSYLLLCLFSLIFYK	52800
MNQTSCFFPPFFLFSFFFFLFFFPFPHSSSLPSFFFSFPSISPLFTSFSVSSL	35200
MNQTSCFFSAFFLFALFLSFPSFLLPSFFLLFLLFYFFPSYLLLCLFSLIFYK	57200
MNQTSRFFLLFFFFFFFYFFPFSHLLPSFLLLFLSFYFSPSYLLLCLFSLIFY	42600
MNQTSRFFSPFFLFLFLLFLSFLSPPPFLPSSLPFLLFLPFLPLSLSLLSLIF	15400
MNQTSRFFSPFFSPFFSPFFSPFFLLFFLFSLFLSFPSFLLPCFLLLFLSFYF	48800
MNRFSIRFTFVISLIDILRGIIILLYTYIHNVGFQCSLISFLFHWLTLVYFFL	55100
MNRIKSARGRDDGSDGEVRILVVSGPRVREVEWSGVQPAWMAVEVVVVMECPR	36800
MNTNWNILPPVLFKWGPSLMVLSFNKPYFCSALPWYLYLCIFMCCLTHLYYFI	70600
MNVLTFFYVVGGVFFFFTISFALPGGYIVLDLSYYNHIICATYLLLLFEFMFY	54200
